Source: patent US20140162945A1 (BEIJING HANMI PHARMACEUTICAL, published 2014)
Bridges are numbered along the chain shown (N, C = ends). Where no end group is shown, it is not given here. [ ]: non-standard residue; d: D form. The star is where a group is joined. Phe(4-NO2) = N[C@@H](Cc1ccc([N+](=O)[O-])cc1)C(=O)O; Phe(4-F) = N[C@@H](Cc1ccc(F)cc1)C(=O)O; Palmitoyl = CCCCCCCCCCCCCCCC(=O)*; Met(O) = CS(=O)CC[C@H](N)C(=O)O; Phg = N[C@H](C(=O)O)c1ccccc1; Nle = CCCC[C@H](N)C(=O)O; Aib = CC(C)(N)C(=O)O

T1: human GIP receptor (human, UniProt P48546 22-466)
T1 sequence (looked up): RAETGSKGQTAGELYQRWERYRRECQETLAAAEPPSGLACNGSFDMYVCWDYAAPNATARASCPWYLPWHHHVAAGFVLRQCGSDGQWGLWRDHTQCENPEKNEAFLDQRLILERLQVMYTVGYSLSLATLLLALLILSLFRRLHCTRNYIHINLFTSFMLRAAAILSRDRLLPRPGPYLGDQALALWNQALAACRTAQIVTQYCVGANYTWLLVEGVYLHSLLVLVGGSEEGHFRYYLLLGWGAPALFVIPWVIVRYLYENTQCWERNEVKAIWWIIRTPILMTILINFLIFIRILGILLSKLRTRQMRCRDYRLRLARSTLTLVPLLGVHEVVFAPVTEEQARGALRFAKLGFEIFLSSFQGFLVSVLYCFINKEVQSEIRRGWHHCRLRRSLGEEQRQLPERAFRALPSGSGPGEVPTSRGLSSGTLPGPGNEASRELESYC


Legend:
human GIP receptor = target: T1, human GIP receptor; experiment: cell-based or functional assay
human GLP-1 receptor = human GLP-1 receptor (human, UniProt P43220 24-463); experiment: cell-based or functional assay
Chain of human GLP-1 receptor (P43220 24-463): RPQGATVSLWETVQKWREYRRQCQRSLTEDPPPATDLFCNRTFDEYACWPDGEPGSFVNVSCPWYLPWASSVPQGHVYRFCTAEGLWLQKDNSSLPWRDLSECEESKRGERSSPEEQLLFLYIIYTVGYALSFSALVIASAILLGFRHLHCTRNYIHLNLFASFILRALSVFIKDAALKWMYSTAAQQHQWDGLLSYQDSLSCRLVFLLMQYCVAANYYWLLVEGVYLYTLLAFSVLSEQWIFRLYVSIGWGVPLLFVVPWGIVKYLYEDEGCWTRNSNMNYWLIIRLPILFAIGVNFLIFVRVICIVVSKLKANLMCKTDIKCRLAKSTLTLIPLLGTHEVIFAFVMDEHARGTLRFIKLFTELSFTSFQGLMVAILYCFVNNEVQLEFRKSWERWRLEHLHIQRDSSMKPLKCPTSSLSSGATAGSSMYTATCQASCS

Binder | EC50, GIP Receptor cAMP induction (human GIP receptor) [nM] | Relative Potency, GIP Receptor (human GIP receptor) [%] | EC50, GLP-1 Receptor cAMP induction (human GLP-1 receptor) [nM] | Relative Potency, GLP-1 Receptor (human GLP-1 receptor) [%]
Y[Aib]EGTFTSDYSIYMEKEAVREFIAWLVKGGPSSGAPPPSK-NH2 (N-terminus assumed; SMILES CC[C@H](C)[C@H](NC(=O)[C@H](Cc1ccccc1)NC(=O)[C@H](CCC(=O)O)NC(=O)[C@H](CCCNC(=N)N)NC(=O)[C@@H](NC(=O)[C@H](C)NC(=O)[C@H](CCC(=O)O)NC(=O)[C@H](CCCCN)NC(=O)[C@H](CCC(=O)O)NC(=O)[C@H](CCSC)NC(=O)[C@H](Cc1ccc(O)cc1)NC(=O)[C@@H](NC(=O)[C@H](CO)NC(=O)[C@H](Cc1ccc(O)cc1)NC(=O)[C@H](CC(=O)O)NC(=O)[C@H](CO)NC(=O)[C@@H](NC(=O)[C@H](Cc1ccccc1)NC(=O)[C@@H](NC(=O)CNC(=O)[C@H](CCC(=O)O)NC(=O)C(C)(C)NC(=O)[C@@H](N)Cc1ccc(O)cc1)[C@@H](C)O)[C@@H](C)O)[C@@H](C)CC)C(C)C)C(=O)N[C@@H](C)C(=O)N[C@@H](Cc1c[nH]c2ccccc12)C(=O)N[C@@H](CC(C)C)C(=O)N[C@H](C(=O)N[C@@H](CCCCN)C(=O)NCC(=O)NCC(=O)N1CCC[C@H]1C(=O)N[C@@H](CO)C(=O)N[C@@H](CO)C(=O)NCC(=O)N[C@@H](C)C(=O)N1CCC[C@H]1C(=O)N1CCC[C@H]1C(=O)N1CCC[C@H]1C(=O)N[C@@H](CO)C(=O)N[C@@H](CCCCN)C(N)=O)C(C)C) [Analog 066] | 0.34 | 50 | 2.5 | 43.7
Y[Aib]EGTFTSDYSIYMEKEAVK(Palmitoyl)EFIAWLVKG-NH2 (N-terminus assumed; SMILES CCCCCCCCCCCCCCCC(=O)NCCCC[C@H](NC(=O)[C@@H](NC(=O)[C@H](C)NC(=O)[C@H](CCC(=O)O)NC(=O)[C@H](CCCCN)NC(=O)[C@H](CCC(=O)O)NC(=O)[C@H](CCSC)NC(=O)[C@H](Cc1ccc(O)cc1)NC(=O)[C@@H](NC(=O)[C@H](CO)NC(=O)[C@H](Cc1ccc(O)cc1)NC(=O)[C@H](CC(=O)O)NC(=O)[C@H](CO)NC(=O)[C@@H](NC(=O)[C@H](Cc1ccccc1)NC(=O)[C@@H](NC(=O)CNC(=O)[C@H](CCC(=O)O)NC(=O)C(C)(C)NC(=O)[C@@H](N)Cc1ccc(O)cc1)[C@@H](C)O)[C@@H](C)O)[C@@H](C)CC)C(C)C)C(=O)N[C@@H](CCC(=O)O)C(=O)N[C@@H](Cc1ccccc1)C(=O)N[C@H](C(=O)N[C@@H](C)C(=O)N[C@@H](Cc1c[nH]c2ccccc12)C(=O)N[C@@H](CC(C)C)C(=O)N[C@H](C(=O)N[C@@H](CCCCN)C(=O)NCC(N)=O)C(C)C)[C@@H](C)CC) [Analog 067] | 3.7 | 4.6 | 7.87 | 13.9
Y[Aib]EGTFTSDYSIYMEKEAVREFIAWLVKGRRRRRR-NH2 (N-terminus assumed; SMILES CC[C@H](C)[C@H](NC(=O)[C@H](Cc1ccccc1)NC(=O)[C@H](CCC(=O)O)NC(=O)[C@H](CCCNC(=N)N)NC(=O)[C@@H](NC(=O)[C@H](C)NC(=O)[C@H](CCC(=O)O)NC(=O)[C@H](CCCCN)NC(=O)[C@H](CCC(=O)O)NC(=O)[C@H](CCSC)NC(=O)[C@H](Cc1ccc(O)cc1)NC(=O)[C@@H](NC(=O)[C@H](CO)NC(=O)[C@H](Cc1ccc(O)cc1)NC(=O)[C@H](CC(=O)O)NC(=O)[C@H](CO)NC(=O)[C@@H](NC(=O)[C@H](Cc1ccccc1)NC(=O)[C@@H](NC(=O)CNC(=O)[C@H](CCC(=O)O)NC(=O)C(C)(C)NC(=O)[C@@H](N)Cc1ccc(O)cc1)[C@@H](C)O)[C@@H](C)O)[C@@H](C)CC)C(C)C)C(=O)N[C@@H](C)C(=O)N[C@@H](Cc1c[nH]c2ccccc12)C(=O)N[C@@H](CC(C)C)C(=O)N[C@H](C(=O)N[C@@H](CCCCN)C(=O)NCC(=O)N[C@@H](CCCNC(=N)N)C(=O)N[C@@H](CCCNC(=N)N)C(=O)N[C@@H](CCCNC(=N)N)C(=O)N[C@@H](CCCNC(=N)N)C(=O)N[C@@H](CCCNC(=N)N)C(=O)N[C@@H](CCCNC(=N)N)C(N)=O)C(C)C) [Analog 075] | 1.45 | 8.3 | 1.41 | 77.7
Y[Aib]EGTFTSDYSEYMEKEAVREFIAWLVKGK(Palmitoyl)-NH2 (lactam 12-16; N-terminus assumed; SMILES CCCCCCCCCCCCCCCC(=O)NCCCC[C@H](NC(=O)CNC(=O)[C@H](CCCCN)NC(=O)[C@@H](NC(=O)[C@H](CC(C)C)NC(=O)[C@H](Cc1c[nH]c2ccccc12)NC(=O)[C@H](C)NC(=O)[C@@H](NC(=O)[C@H](Cc1ccccc1)NC(=O)[C@H](CCC(=O)O)NC(=O)[C@H](CCCNC(=N)N)NC(=O)[C@@H](NC(=O)[C@H](C)NC(=O)[C@H](CCC(=O)O)NC(=O)[C@@H]1CCCCNC(=O)CC[C@H](NC(=O)[C@H](CO)NC(=O)[C@H](Cc2ccc(O)cc2)NC(=O)[C@H](CC(=O)O)NC(=O)[C@H](CO)NC(=O)[C@@H](NC(=O)[C@H](Cc2ccccc2)NC(=O)[C@@H](NC(=O)CNC(=O)[C@H](CCC(=O)O)NC(=O)C(C)(C)NC(=O)[C@@H](N)Cc2ccc(O)cc2)[C@@H](C)O)[C@@H](C)O)C(=O)N[C@@H](Cc2ccc(O)cc2)C(=O)N[C@@H](CCSC)C(=O)N[C@@H](CCC(=O)O)C(=O)N1)C(C)C)[C@@H](C)CC)C(C)C)C(N)=O) [Analog 084] | 1.34 | 8.8 | 4.8 | 22.2
Y[Aib]EGTFTSDYSIAMEKIHQQDFVNWLLAQ-NH2 [Analog 002] | 11.1 | – | 995 | –
Y[Aib]EGTFTSDYSIYMEKIHQQDFVNWLLAQ-NH2 [Analog 003] | 0.18 | 77.7 | 483 | –
Y[Aib]EGTFTSDYSI[Phe(4-F)][Met(O)]EKIHQQDFVNWLLAQ-NH2 [Analog 004] | 14.6 | – | 926 | –
Y[Aib]EGTFTSDYSI[Phe(4-NO2)][Met(O)]EKIHQQDFVNWLLAQ-NH2 [Analog 005] | 76.5 | – | > 2000 | –
Y[Aib]EGTFISDYSIA[Met(O)]EKIHQQDFVNWLLAQ-NH2 (N-terminus assumed; SMILES CC[C@H](C)[C@H](NC(=O)[C@H](CO)NC(=O)[C@H](Cc1ccc(O)cc1)NC(=O)[C@H](CC(=O)O)NC(=O)[C@H](CO)NC(=O)[C@@H](NC(=O)[C@H](Cc1ccccc1)NC(=O)[C@@H](NC(=O)CNC(=O)[C@H](CCC(=O)O)NC(=O)C(C)(C)NC(=O)[C@@H](N)Cc1ccc(O)cc1)[C@@H](C)O)[C@@H](C)CC)C(=O)N[C@@H](C)C(=O)N[C@@H](CCS(C)=O)C(=O)N[C@@H](CCC(=O)O)C(=O)N[C@@H](CCCCN)C(=O)N[C@H](C(=O)N[C@@H](Cc1c[nH]cn1)C(=O)N[C@@H](CCC(N)=O)C(=O)N[C@@H](CCC(N)=O)C(=O)N[C@@H](CC(=O)O)C(=O)N[C@@H](Cc1ccccc1)C(=O)N[C@H](C(=O)N[C@@H](CC(N)=O)C(=O)N[C@@H](Cc1c[nH]c2ccccc12)C(=O)N[C@@H](CC(C)C)C(=O)N[C@@H](CC(C)C)C(=O)N[C@@H](C)C(=O)N[C@@H](CCC(N)=O)C(N)=O)C(C)C)[C@@H](C)CC) [Analog 006] | 6.66 | – | > 2000 | –
Y[Aib]EGTFTSDYSIF[Met(O)]EKIHQQDFVNWLLAQ-NH2 [Analog 007] | 19 | – | 836 | –
Y[Aib]EGTFTSDYSI[Phe(4-NO2)][Nle]EKIHQQDFVNWLLAQ-NH2 [Analog 008] | 24.2 | – | 1580 | –
Y[Aib]EGTFTSDYSI[Phg][Nle]EKIHQQDFVNWLLAQ-NH2 [Analog 009] | 22.2 | – | > 2000 | –
Y[Aib]EGTFISDYSIA[Nle]EKIHQQDFVNWLLAQ-NH2 [Analog 010] | 11.5 | – | > 2000 | –
Y[Aib]EGTFTSDYSIF[Nle]EKIHQQDFVNWLLAQ-NH2 [Analog 011] | 693 | – | 1480 | –
Y[Aib]EGTFTSDYSI[Phe(4-NO2)]MEKIHQQDFVNWLLAQ-NH2 [Analog 016] | 18.3 | – | 1670 | –
Y[Aib]EGTFTSDYSIY[Nle]EKEAQQDFVNWLLAQ-NH2 [Analog 020] | 0.27 | 51.8 | 830 | –
Y[Aib]EGTFTSDYSIY[Nle]EKIHQQDFVNWLVRQ-NH2 [Analog 021] | 2.3 | 21.7 | 217 | –
